From the nanobody polyreactivity screen of Harvey et al. (2022)

Test: yeast display, Sf9 membrane polyspecificity reagent, FACS + sequencing; frameworks hold sequencing errors
In short: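 Nanobodies came from a synthetic yeast display library in Saccharomyces cerevisiae BJ5465, induced with galactose for 36–48 hours and stained for 1 hour at 4 °C with 10% biotinylated, detergent-solubilized Sf9 membrane reagent. Cells were enriched on streptavidin microbeads and then FACS-sorted, with low and high (top ~1%) gates set on anti-HA fluorescence for expression and streptavidin fluorescence for reagent binding. Each polyreactivity label reflects the gate a clone came from. Genes were amplified by colony PCR, sequenced by MiSeq 2 × 250 and filtered by CDR length.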

Row | Sequence | polyreactivity (PSR sort gate)
1 | QVQLVESGGGLVQAGGSLRLICAASGSIFASYVMGWYRQAPGKERDLVAAITSRGTSTYYADSVKGRFTISRDNAKNTVYFQINSLKTEDTAVYYCAARLYGSAPQHEYWGKGTQVTVSS | low polyreactivity
2 | QVQLVESGGGLVQAGGSLRLSCAASGFIFYSNAMGWYRQAPGKERELVATITGDGGTTYYADSVKGRFTISRDNAKNTVYLQMNSLKPEDTAVYYCAKDYIYRGYYTDFRYEDYDYWGQGTQVTVSS | low polyreactivity
3 | QVQLVESGGGLVQAGGSLRLSCAASGFIFGTYAMGWYRQAPGKERELVAAISVGGGSTYYADSVKGRFTISRDKAKNTVYLQMNSLKPEDTADYYCAAVQLYQKHQITYVAHEYWGQGTQVTVSS | low polyreactivity
4 | QVQLVESVGGLVQAGGSLRLSCSASGRTFSYYTMGWYRQAPGKERELVADINTSVGSTDYADSVKGRFTISRDTAKNTVYLQMNSLKPEDTAVYYCQLIRRGHDYWGQGTQVTVSS | high polyreactivity
5 | QVQLVESGGGLVQAGGSLRLSCAASGRIFSYNAMGSDRQAPGKERELVADISSGGSTYYADSVKGRFTISRDNAKNSVYLQMNSLKPEDSAVYYCNADYYAFPWTNEYWGQGTQVTVSS | high polyreactivity
6 | QVQLVESGGGLVQAGGSLRLSCAASGNIFDQNAMGWYRQAPAKERELVAAITRSGSTTYYADSVKGRFTISRDNAKNTVYLQMNSLKPEDTAVYYCAAKVYAYRTYKMYYWGEGTQVTVSS | high polyreactivity
7 | QVQLVESGGGLVQAGGSLRLSCAASGINFDDYVMGWYRQAPGKERELFAAISSSGGSTYYADSVKGRFTISRDNAKNTVYLQMNSLKPEDTAVYYCAADYGSYGVVRAVSIEYEYWGQGTKVTVSS | low polyreactivity
8 | QVQLVESGGGLVQAGGSLRLSCAASGSIFYGYAMGWYRQAPGRERELVAAIRYRGGRTDYGDSVKGRFTISRDNAKKTVYLQMNSLKPEDTAVYYCAKDLIRYGYLTYVYWGQGTQVTVSS | high polyreactivity
9 | QVQLVESGGGLVQAGGSLRLSCAASGRTFWGYAMGWYRQAPGKERELVATISSTGSTNYADSVKGRFTISRDNAKNPVYLQMNSLKPEDTAVYYCNAKRHLYRGWYQRYDYWGQGTQVTVSS | high polyreactivity
10 | QVQLVESGGGLVQAGGSLRLSCAASGFIFLRYAMGWYRQAPGKERELVAAISSSGGRTTYADSVKGRFTISRDNAKNTLYLQMNSLKPEDTAVYYCNADLWPGNHDGYWGQGTQVTVSS | low polyreactivity
11 | QVQLVESGGGLVQAGGSLRLSCAASGFIFRSYAMGWYRQAPGKERELVAAITSGGRTFYADSVKGRFTISRDNAKNTVYLQMNSLKPEDTAVYYCAAGGYRTGFNYWGQGTQVTVSS | high polyreactivity
12 | QVQLVESGGGLVQAGGSLRLSCAASGRIFWVYTMGWYRQAPGKERELVAAITSADSTNYADSVKGRFTISRDNAKNTVYLQMNSLKAEDTAVYYCAARLARDQVREWDERYYYWGQGTQVTVSS | low polyreactivity
13 | QVQLVESGGGLVQAGGSLRLSCAASGSTFATYAMGWYRQAPGKERELVAVITRGGRTYYADSVKGRFTISRDNAKNTVYLQMNSLKPEDTAVYYCAAKAYTYYARIGFDYWGQGTQVTVSS | high polyreactivity
14 | QVQLVESGGGLVQAGGSLRLSCAASGSIFSIYAMGWYRQAPGKERELVASITRSSGRTYYADSVKGRFTISRDNAKNTVYLQMNSLKPEDTAVYYCNAVWNTFISGRSYDYWGQGTQVTVSS | low polyreactivity
15 | QVQLVESGGGLVQAGGSLSLSCAASGATFVRNAMGWYRQAPGKERELVAVISFRGGRTYYADSVKGRFTISRDNAKNTVYLQMNSLNPEDTAVYYCAKDRVASGVISSVDSWGQGTLVTVSS | low polyreactivity
16 | QVQLVESGGGLVQAGGSLRLSCAASGFTFSKYAMGWYLQAPGKERELVAAISRRGGSTYYADSVKGRFTISRDNAKNTVYLQMNSLKPEDTAVYYCAARYSVGTGYGYWGQGTQVTVSS | high polyreactivity
17 | QDQLVESGGGLVQAGGSLRLSCAASGRTLWRNTMGWYRQAPGKERELVAAITTRGGSTYYADSVKGRFTISRDNAKNTVYLQLNSLKPEDTAVYYCAARTYTGEGSGRFYYWGQGTQVTVSS | high polyreactivity
18 | QVQLVESGVGLVQARGSLRLSCAASGVISSINAVGWNRLAAAKEWELVAGIRARGTSPYYADSVKGRFTISRDNAKNTVYLQMNCLKPEDTAVYDCAADVDAGRHYGYWGQGTQVTVSS | low polyreactivity
19 | QVQLVESGGGLVQAGGSLRLSCAASGFISTPYAIGWYRQAPGKERELVAAIDISGGRTYYADSVKGRFTISRDNAKNTVYLQMNSLKPEDTAVYDCAAQLVSSYYAWYRTYYYWGQGTQVTVSS | high polyreactivity
20 | QVHLVESGGGLVQAGGSLRLSCAASGFTFYRYAMGWYRQAPGKDRELVAAITWSGGSTYYADSVKGRFTISRDNAKNTVYLQMNSLKPEDTAVYYCAADIYDGGFDYWGQGTQVTVSS | low polyreactivity
21 | QVQLVESGGGLVQAGGSLRLSCAASGRIFPDNTMGWYRQAPGTERELVAAITSSGGSTYYADSVKGRFTISRDNAKNTVYLQMNSLKPEDTAVYYCAAAVKRGYAQSFISDGYGYWGQGTQVTVSS | low polyreactivity
22 | QVQLVESGGGLVQAGGSLRLSCAPSGSIFGVYAMGWYRQAPGKERELVAAISSRGSSTYYADSVKGRFTISRDNAKNTVYLQMNSLKPEDTAVYYCAARPGIRSYPPGYGYWGQGTQVTVSS | high polyreactivity

Row | Sequence | polyreactivity (PSR sort gate)
23 | QVQLVESGGGLVQAGGSLRLSCAASGSTFAAYVMGWYRQAPGKERELVAAISTSGGRTYYADSVKGRFTISRDNAMNTVYLQMNSLIPEDTAVYYCAKKRINSRKYDYWGQGTQVNVSS | low polyreactivity
24 | QVQLVESAGGLVQAGGSLRLSCAASGSTFGLNAMGRYRQAPGKERELVAAITRSGATTYYADSVKGRFTISRDNAKNTVYLKMNSLKPEDTAVYYCNKVYRPYTKRYYWGQGTQVTVSS | high polyreactivity
25 | QVQLVESGGGLVQAGGSLRLSCAASGSIFRFNAMGWNRPAPGKERELVAAITSSGGSTYYADSVKGRFTISRDNAKNTVYLQMNSLKPEDTAVYYCAKRWLYPISYDYWGQGTQVTVSS | high polyreactivity
26 | QVQLVESGGGLVQAGGSLRLSCAASGSTFAKYAMGWYRQAPGKERELVASIRLSGGSTYYADSVKGRFTISRDNAKNTVYLQMNSLKPEETAVYYCNKQFATFYYCFDYYYWGQGTQVTVSS | low polyreactivity
27 | QVQLVESAGGLVQAGGSLSLSCAASAFTYVCNRMGWNRQAPGKERELVAAITGSGSTNYADSVKGRFTISRDNAKNTVYLQMNSLKPEDTAVYYCATSDRQVKYDYWGQGTQVPVSS | low polyreactivity
28 | QVQLVESGGGLVQAGGSLRLSCAASGSIFDGYAMGWYRQAPGKERELVAAISQRGGSTYYADSVKGRFTISRDNAKNTVYLQMNSLKPEDTAVYYCAADSSYGTREYWGQGTQVTVSS | low polyreactivity
29 | QVQLVESGGGLVQAGGSLRLSCAASGSIIYHYAWGWYRQAPGQERELVDAITRCGGSTYYADSVKGRFTISRDNAKNTVYLQMHSLKPEDTAVYYCAREAGRYAYKYYWWQRTDYDYGGQGTQVTVSS | low polyreactivity
30 | QDQLVESGGGLVQAGGSLRLSCSASGFTITHNAMGWYRQAPGKEREFVATISRSGGRTYYADSVKGRFTISRDNAKNTVFFQMNSLKPEDTPVYYCAARTSGYWYSYGSWGQGTQVTVSS | high polyreactivity
31 | QVQLQDSGSGLVQAGGSLRLSCAASGAIFPAYLMVSYRQAPGKERELVAGISYGSITYCADSVKGRFNISRDNAKNTVYLQMNSLKPEDTAVYYCAVWRPGGDEYYYWGQGTQVTVSS | low polyreactivity
32 | QVQLVESGARLVQAGGSLRLSCAASGRTVAYNAMGWSREAAGKEREVDPAISRRGGSTYYADSVKGRFTISRDNAKNTVNLQMNSLKPEDTAVYYCASRRLRRASSLDYWGQGSQVTVSS | high polyreactivity
33 | QVQLVESGGGLVQAGGSLRLSCAASGSTFASYAMGWYRQAPGKERELVAAIRWRGGTTYYADSVKGRFTISRDNAKNTVYLQMNSLKPDDTAVYYCNADRYYLYYYWGQGTQVTVSS | low polyreactivity
34 | QVQHVESGGGLVQAGGSLRLSCAASGSTFYLYAMGWYRQAPGTERELLAAITYSGDRTRYADSVKGRFTISRDNAKNTVYLQMNSLKPEDTAVYYCAAPYVGARNAYRMCYWGQGTQVTVSS | high polyreactivity
35 | QVQLVESGGGLVKAGGSLRLSCAASGSTFTYYAMGWYRQAPGKERELVARITWTGGRTYYADSVKGRFTISRGNAKNTVYLQMNSLKPEDTAVNYCNALPYFYETQYDYWGQGTQVTVSS | low polyreactivity
36 | QVQLVESGGGLVQAGGSLRLSCAASGYIFSYNAMGWYRQAPGKERELVAAITASGGGTYYADSVKGRFTISRDNAKNTVYLQMNSLKPEDTAVYYCAADFNDHYYWYGQDYDYWGQGTQVTVSS | low polyreactivity
37 | QVQIVESGGGLVQAGGRLRLSCAYSGLIISWYAMGCDIQSPGKERELVAAISGSVGSTYYADPVKGRFTISRDNAKNTVYLQMNSLKPEDTAVYYCAARSKDGGGPMYYWGQGTQVTVSS | high polyreactivity
38 | QVQLVESGGGLVQAGGSLRLSCAASGSTFPWNAMGWYRQAPGKERELVAAINYGNGSTYYADSVKGRFTISRDNAKNTVYLQMNSLKPEDTAVYYCNADYTGTRTDSVTPEYEYWGQGTQVTVSS | low polyreactivity
39 | QVQLVESGGGLVQAGGSLRLSCAASGITFERYAMGWYRQAPGKERELVAAITYRGGSTYYADSVKGRFTISRDNAKNTVYLQMNSLKPEDTAVYYCNRARLRGAYIYWGQGTQVTVSS | high polyreactivity
40 | QVQLVESGGGLVQAGRSLRLSCAASGSIFRYYAMGWYRQAPGKERELVAAISSSGGSTYYADSVKGRFTISRDNAKNTVYLQMNSLKPEDTAVYYCAAVWLSGYGDNYWGQGTQVTVSS | high polyreactivity
41 | QVQLVESGGGLVQAGGSLRLSCAASGSILLRYAMGWYRQAPGKEWELVAAIRTIGASTYYADSVKGRFTISRYNAMITVYLQMNSLKPDDTAVYYCNAESASYWYRPGYDYWGQGNQVTVSS | low polyreactivity
42 | QVQLVESGGGLVQAGGSLRLSCAASGFTFKLNAMGWYRQAPGKERELVATISSSGGSTFYADSVKGRFTISRDNAKNTVYLQMNSLKPEDTAVYYCAADSGYGPYYYWGQGTQVTVSS | high polyreactivity
43 | QVQLVESGGGLVQAGGSLRLSCAASGRIFWGNAMGWYRQAPGKERELVAAITSGDGTNYADSVKGRFTISRDNAKNTVYLQMNSLKPEDTAVYYCSYYYWGQGTQVTVSS | low polyreactivity
